Laboratory results: IntAct's records for PubMed 29039417

B1: Isoform 2 of Bardet-Biedl syndrome 7 protein (Homo sapiens), Q8IWZ6-2 (parent)
chain: MDLILNRMDYLQVGVTSQKTMKLIPASRHRATQKVVIGDHDGVVMCFGMKKGEAAAVFKTLPGPKIARLELGGVINTPQEKIFIAAASEIRGFTKRGKQFLSFETNLTESIKAMHISGSDLFLSASYIYNHYCDCKDQHYYLSGDKINDVICLPVERLSRITPVLACQDRVLRVLQGSDVMYAVEVPGPPTVLALHNGNGGDSGEDLLFGTSDGKLALIQITTSKPVRKWEIQNEKKRGGILCIDSFDIVGDGVKDLLVGRDDGMVEVYSFDNANEPVLRFDQMLSESVTSIQGGCVGKDSYDEIVVSTYSGWVTGLTTEPIHKESGPGEELKINQEMQNKISSLRNELEHLQYKVLQERENYQQSSQSSKAKSAVPSFGINDKFTLNKDDASYSLILEVQTAIDNVLIQSDVPIDLLDVDKNSAVVSFSSCDSESNDNFLLATYRCQADTTRLELKIRSIEGQYGTLQAYVTPRIQPKTCQVRQYHIKPLSLHQRTHFIDHDRPMNTLTLTGQFSFAEVHSWVVFCLPEVPEKPPAGECVTFYFQNTFLDTQLESTYRKGEGVFKSDNISTISILKDVLSKEATKRKINLNISYEINEVSVKHTLKLIHPKLEYQLLLAKKVQLIDALKELQIHEGNTNFLIPEYHCILEEADHLQEEYKKQPAHLERLYG
partner: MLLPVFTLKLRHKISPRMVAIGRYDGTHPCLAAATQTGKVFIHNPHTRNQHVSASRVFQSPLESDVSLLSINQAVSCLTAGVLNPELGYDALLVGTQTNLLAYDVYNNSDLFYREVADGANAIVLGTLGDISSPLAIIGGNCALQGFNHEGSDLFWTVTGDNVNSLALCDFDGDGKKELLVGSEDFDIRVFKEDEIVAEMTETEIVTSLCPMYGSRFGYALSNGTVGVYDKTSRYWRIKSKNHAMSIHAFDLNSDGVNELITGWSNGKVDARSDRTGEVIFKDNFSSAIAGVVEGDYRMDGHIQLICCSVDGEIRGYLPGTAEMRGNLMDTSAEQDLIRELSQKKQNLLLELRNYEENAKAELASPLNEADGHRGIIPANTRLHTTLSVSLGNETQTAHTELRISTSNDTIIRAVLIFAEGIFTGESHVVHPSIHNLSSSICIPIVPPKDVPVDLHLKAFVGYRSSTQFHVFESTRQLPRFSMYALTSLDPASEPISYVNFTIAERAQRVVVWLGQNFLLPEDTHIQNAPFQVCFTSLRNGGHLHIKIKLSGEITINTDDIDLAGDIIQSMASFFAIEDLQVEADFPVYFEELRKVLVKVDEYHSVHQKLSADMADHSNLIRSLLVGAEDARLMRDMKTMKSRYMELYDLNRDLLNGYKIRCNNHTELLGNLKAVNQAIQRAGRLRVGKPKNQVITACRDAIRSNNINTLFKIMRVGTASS

Variants of: B1
Details: with bbs2_human BBS2, Q9BXC9

effect of a mutation on the interaction | Variant
with no effect | E562K
with no effect | Y465E
with no effect | L349E
with no effect | E331K
with no effect | E668K
with no effect | V407A
with no effect | R484A
with no effect | R484E
with no effect | H498K
disrupting interaction strength | F515K
with no effect | Q464K
with no effect | V531E
with no effect | S378E
with no effect | Q339K
with no effect | Q339A
with no effect | I500K
with no effect | Y471E
with no effect | F545K
with no effect | I404E
disrupting interaction strength | S522E
with no effect | E599A
with no effect | E555K
with no effect | D654E

effect of a mutation on the interaction | Variant
with no effect | T605K
with no effect | N638E
with no effect | Q663A
with no effect | L418E
with no effect | P505A
with no effect | V600A
with no effect | K489E
with no effect | Q657K
with no effect | Q546A
with no effect | V472A
with no effect | T510A
with no effect | N340K
with no effect | V525K
with no effect | S395E
with no effect | T402E
with no effect | I626K
with no effect | G672A
with no effect | K577E
with no effect | S516A
with no effect | S492K
with no effect | R459A
with no effect | D412K
with no effect | L352A

effect of a mutation on the interaction | Variant
with no effect | I476K
with no effect | P532K
disrupting interaction strength | P474K
with no effect | V427K
with no effect | K621E
with no effect | Q633K
with no effect | Q401A
with no effect | C481A
with no effect | L591K
with no effect | S326K
with no effect | L608K
with no effect | T451A
with no effect | T508A
with no effect | M338A
with no effect | L456K
with no effect | L442E
with no effect | V602K
disrupting interaction strength | G561R
with no effect | S430K
disrupting interaction strength | G513D
with no effect | N388A
with no effect | R446E
with no effect | Q364K

effect of a mutation on the interaction | Variant
with no effect | Q495A
with no effect | L606E
with no effect | T480K
with no effect | L580A
disrupting interaction strength | Q485N
with no effect | D568E
with no effect | D568A
with no effect | R453E
with no effect | K582E
with no effect | D391A
with no effect | L619K
with no effect | Q365K
with no effect | D503E
with no effect | L493K
with no effect | L670E
with no effect | F549A
with no effect | D421K
with no effect | L332A
with no effect | P644E
with no effect | K389A
with no effect | K560A

More lines, now with the values behind:

Variant | effect of a mutation on the interaction
L491P | disrupting interaction strength
F641K | with no effect
H610A | with no effect
R484K | with no effect
A628E | with no effect
P535K | with no effect
P664A | with no effect
I575A | with no effect
Q464A | with no effect
N592K | with no effect
V426A | with no effect
N423E | with no effect
T452E | with no effect
S556K | with no effect
G466A | with no effect
Y471A | with no effect
Y445A | with no effect
T467A | with no effect
A537K | with no effect
L468P | disrupting interaction strength
L387A | with no effect
R346A | with no effect
R346E | with no effect

Variant | effect of a mutation on the interaction
I461K | with no effect
H604E | with no effect
L632K | with no effect
V579A | with no effect
Q546E | with no effect
V472M | disrupting interaction strength
E348K | with no effect
S571E | with no effect
S366K | with no effect
I593K | with no effect
N340A | with no effect
I634A | with no effect
S428A | with no effect
K577A | with no effect
L613E | with no effect
V400E | with no effect
C527E | with no effect
I476E | with no effect
E455K | disrupting interaction strength
P529C | disrupting interaction strength
Q401K | with no effect
S374A | with no effect
L642A | with no effect

Variant | effect of a mutation on the interaction
Y363A | with no effect
Y363E | with no effect
K479E | with no effect
S431E | with no effect
S431K | with no effect
P536A | with no effect
D405A | with no effect
P611E | with no effect
V483K | with no effect
L442P | disrupting interaction strength
N388E | with no effect
Q364A | with no effect
H666A | with no effect
A443K | with no effect
D383K | with no effect
I573A | with no effect
V413E | with no effect
T542K | with no effect
E530K | with no effect
L580K | with no effect
N347A | with no effect
E361A | with no effect
K371A | with no effect

Variant | effect of a mutation on the interaction
N547K | with no effect
S344E | with no effect
D503K | with no effect
H635K | with no effect
I589K | with no effect
I589A | with no effect
N640E | with no effect
T497K | with no effect
Q336E | with no effect
L656K | with no effect
A470E | with no effect
Q477E | with no effect
L670A | with no effect
Y671K | with no effect
A403K | with no effect
C447A | with no effect
D421A | with no effect
D419E | with no effect
L441E | with no effect
M506A | with no effect
T585E | with no effect
T512A | with no effect
Q514A | with no effect
